According to patent US20170002075A1 (AbbVie / Abbott, published 2017):
Each block holds one binder with its values, some of them ahead of it.

Legend:
[1] = molecular target: T1, recombinant human RAGE (plate coat of the competition ELISA of Example 1.4); test: competition ELISA on plates coated with recombinant human RAGE (2 µg/mL); competitor: biotinylated hybridoma-derived 7F9 (7F9-biotin), streptavidin-HRP, OD 450 nm; the unit comes from the axis 'Log MAbs (M)'
T1 construct: not shown: The carrier of the coated preparation, if it had one
T1 sequence (chain, as listed by the source limits assumed): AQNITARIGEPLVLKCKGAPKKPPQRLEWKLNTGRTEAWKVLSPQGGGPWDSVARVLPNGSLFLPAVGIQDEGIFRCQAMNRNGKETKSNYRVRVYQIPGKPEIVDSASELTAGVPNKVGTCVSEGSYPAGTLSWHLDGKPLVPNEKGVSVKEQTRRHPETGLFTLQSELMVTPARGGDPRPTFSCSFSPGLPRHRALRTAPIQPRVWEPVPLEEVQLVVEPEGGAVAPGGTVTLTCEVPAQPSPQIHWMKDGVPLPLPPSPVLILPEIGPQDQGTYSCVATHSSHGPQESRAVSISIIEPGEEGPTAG
Experimental: (§1) The purified chimeric anti-human RAGE monoclonal antibodies were tested for their ability to bind human RAGE in a competition ELISA. […] Equal volumes (50 μL) of each recombinant chimeric anti-human RAGE monoclonal antibodies or hybridoma-derived anti-human RAGE monoclonal antibodies and each corresponding biotinylated hybridoma-derived anti-RAGE mAbs were mixed. 50 μL of this mixture was then added to ELISA plates pre-coated with recombinant human RAGE at 2 μg/mL and incubated for 1.5 hours at room temperature. Wells were washed three times with PBS+0.05% Tween-20. Streptavidin HRP (1 mg/mL) was diluted 1:16000 in PBST+10% Superblock; 50 µL/well was added and the plates incubated for 1 hour at room temperature. Plates were washed 3 times with PBS+0.05% Tween-20. 50 µL of TMB solution (Sigma, St Louis, Mo.) was added to each well and incubated for 10 minutes at room temperature. The reaction was stopped by addition of IN sulphuric acid. Plates were read spectrophotometrically at a wavelength of 450 nm.

[2] = molecular target: T2, hRAGE (1-331) / human sRAGE 1-331, V#400 (human, UniProt Q15109 23-331); test: Biacore SPR, mAb captured via anti-mouse Fc, human sRAGE 1-331 (V#400) injected, concurrent experiment, 1:1 fit
T2 construct: also called sRAGE [RAGE (1-331)]; RAGE (antigen of the Biacore runs)
T2 sequence (Q15109 23-331): as the sequence (chain, as listed by the source limits assumed) above
Text: Biacore 2000 and Biacore T100 instruments were used to measure anti-RAGE mAb binding kinetics. The assay format for mAb affinity analysis was Fc-based capture via immobilized anti-Fc antibodies. A standard amine coupling protocol was employed to immobilize Fc-specific IgG via primary amines to the carboxy-methyl (CM) dextran surface of CM5 sensorchips (Biacore). For the study of mouse anti-RAGE mAbs, anti-mouse Fc (Biacore, anti-mouse, BR-1005-14) was used as the immobilized capture reagent and for the study of humanized anti-RAGE mAbs, anti-human Fc (Pierce 31125) was used as the immobilized capture reagent. An automated protocol, available on the Biacore 2000 and Biacore T100, was used to immobilize 8000-10000 RU of capture reagent in all 4 flowcells of the sensorchip. Briefly, the CM-dextran surfaces were activated by freshly prepared 1:1 50 mM N-hydroxysuccinimide (NHS):200 mM 3-(N,N-dimethylamino) propyl-N-ethylcarbodiimide (EDC). Then the anti-Fc IgG capture reagent (20 ug/ml in 10 mM sodium acetate, pH4.5) was applied to the surface followed by deactivation of the surface and blocking of the residual reactive sites with 1M ethanolamine (pH 8.5).
Data were processed using either Biacore evaluation software or Scrubber 2.0 software (BioLogic Software). Briefly, the data were double referenced by first, subtracting the signal from the reference cell and second, by subtracting the signal from buffer-only injections. The double referenced data for the RAGE injection series were then fit globally to a 1:1 (Langmuir) binding model, which included a mass transfer term, to determine the binding kinetic rate constants, kₐ and kd, and the affinity, KD (kₐ=kₒₙ; kd=koff)

[3] = molecular target: T1, recombinant human RAGE (plate coat of …); test: competition ELISA on plates coated with recombinant human RAGE (2 µg/mL); competitor: biotinylated hybridoma-derived 11E6 (11E6-biotin), streptavidin-HRP, OD 450 nm; the unit comes from the axis 'Log MAbs (M)'
Experimental: as §1

[4] = molecular target: T1, recombinant human RAGE (plate coat of …); test: competition ELISA on plates coated with recombinant human RAGE (2 µg/mL); competitor: biotinylated hybridoma-derived 4E5 (4E5-biotin), streptavidin-HRP, OD 450 nm; the unit comes from the axis 'Log MAbs (M)'
Experimental: as §1

- EC50 [1]: 166 nM
B1: anti-human RAGE monoclonal antibody 7F9 (murine, hybridoma-derived) (antibody, V domains shown)
VH: EEKLEESGGGLVQLGGSMKISCVASGFTLSNYWMDWVRQSPEKGLEWIAEIRLKSNYYSTHYAESVKGRFSISRDDSKGSVSLQMDNLTAEDTGIYFCARNAYWYFDVWGTGTTVTVSS
VL: DIVMTQSHKFMSTSVGDRVSATCKASQDVGTSVAWYQQKLGQSPKLLIYWTSTRHTGVPDRFTGSGSGTDFTLTISNVQSEDLADYFCQQYNNYPLTFGDGTKLELKR
notes: also called mAb7F9; MAb 7F9

- Kd [2]: 0.068 nM
- koff [2]: 0.0013 s⁻¹
- kon [2]: 1.8e+07 M⁻¹ s⁻¹
- EC50 [3]: 90.9 nM
B2: anti-human RAGE monoclonal antibody 11E6 (murine, hybridoma-derived) (antibody, V domains shown)
VH: QIQLVQSGPELKKPGETVKISCKASGYTFTNFGMNWVKQAPGKGLKWMGYINTNTGESIYSEEFKGRFAFSLETSASTAYLQINNLKNEDTATYFCARSRMVTAYGMDYWGQGTSVTVSS
VL: DIVMTQSQKFMSTSVGDRVSITCKASQNVGTAVAWYQQRPGQSPKLLIFSASNRYTGVPDRFTGSGSGTDFTLTLSNMQPEDLADYFCQQYSSYPLTFGVGTKLELKR
notes: also called mAb11E6; ML37-11E6

- EC50 [4]: 244 nM
B3: anti-human RAGE monoclonal antibody 4E5 (murine, hybridoma-derived) (antibody, V domains shown)
VH: QVQLQQSGAELVRPGTSVKVSCKASGYAFNNYLIEWIKQRPGQGLEWIGVINPGSGGTNHNEKFKVKATLTADKSSSTAYIQLSSLTSDDSAVYFCARSAGTARARFAYWGQGTLVTVSA
VL: DIQMTQSPSSLSASLGERVSLTCRASQDIGSSLNWLQQEPDGTIKRLIYATSSLDSGVPKRFSGSRSGSDYSLTISSLESEDFVDYYCLQYASFPFTFGSGTKLEIKR
notes: also called mAb4E5; ML37-4E5
